# Data: patent publication US20220363736A1 (ICAHN SCHOOL OF MEDICINE AT MOUNT SINAI, published 2022)
# Read-outs that look alike come from different tables or passages of the source.
# B1: recombinantly expressed 4F11 IgG2b (antibody, V domains shown)
# VH: DVKLVESGGDLVKPGGSLKLSCAASGFTFSAYSMSWVRQTPERRLEWVATINTGGSFTYYPDSVKGRFTISRDNAKNTLYLQMSSLKSEDTAMYFCTRVSDYGNSAYFPYWGQGTLVIVFA
# VL: QVVLTQSPALISASPGEKVTMTCSASSNVNYMSWYQQRPRSSPKPWIYLTSKLASGVPPRFSGSGSGTSYSLTISSMEAEDVATYYCQQWSSDPQTFGGGTKVEIK
# B2: recombinantly expressed 4F11 polymeric IgA (antibody, V domains shown)
# VH: DVKLVESGGDLVKPGGSLKLSCAASGFTFSAYSMSWVRQTPERRLEWVATINTGGSFTYYPDSVKGRFTISRDNAKNTLYLQMSSLKSEDTAMYFCTRVSDYGNSAYFPYWGQGTLVIVFA
# VL: QVVLTQSPALISASPGEKVTMTCSASSNVNYMSWYQQRPRSSPKPWIYLTSKLASGVPPRFSGSGSGTSYSLTISSMEAEDVATYYCQQWSSDPQTFGGGTKVEIK
# B3: monoclonal antibody 4F11 (hybridoma-produced, murine IgG2b) (antibody, V domains shown)
# VH: DVKLVESGGDLVKPGGSLKLSCAASGFTFSAYSMSWVRQTPERRLEWVATINTGGSFTYYPDSVKGRFTISRDNAKNTLYLQMSSLKSEDTAMYFCTRVSDYGNSAYFPYWGQGTLVIVFA
# VL: QVVLTQSPALISASPGEKVTMTCSASSNVNYMSWYQQRPRSSPKPWIYLTSKLASGVPPRFSGSGSGTSYSLTISSMEAEDVATYYCQQWSSDPQTFGGGTKVEIK
# B4: recombinantly expressed 4F11 IgM (antibody, V domains shown)
# VH: DVKLVESGGDLVKPGGSLKLSCAASGFTFSAYSMSWVRQTPERRLEWVATINTGGSFTYYPDSVKGRFTISRDNAKNTLYLQMSSLKSEDTAMYFCTRVSDYGNSAYFPYWGQGTLVIVFA
# VL: QVVLTQSPALISASPGEKVTMTCSASSNVNYMSWYQQRPRSSPKPWIYLTSKLASGVPPRFSGSGSGTSYSLTISSMEAEDVATYYCQQWSSDPQTFGGGTKVEIK
# B5: recombinantly expressed 4F11 monomeric IgA (antibody, V domains shown)
# VH: DVKLVESGGDLVKPGGSLKLSCAASGFTFSAYSMSWVRQTPERRLEWVATINTGGSFTYYPDSVKGRFTISRDNAKNTLYLQMSSLKSEDTAMYFCTRVSDYGNSAYFPYWGQGTLVIVFA
# VL: QVVLTQSPALISASPGEKVTMTCSASSNVNYMSWYQQRPRSSPKPWIYLTSKLASGVPPRFSGSGSGTSYSLTISSMEAEDVATYYCQQWSSDPQTFGGGTKVEIK
# B6: recombinantly expressed 4F11 IgG2a (antibody, V domains shown)
# VH: DVKLVESGGDLVKPGGSLKLSCAASGFTFSAYSMSWVRQTPERRLEWVATINTGGSFTYYPDSVKGRFTISRDNAKNTLYLQMSSLKSEDTAMYFCTRVSDYGNSAYFPYWGQGTLVIVFA
# VL: QVVLTQSPALISASPGEKVTMTCSASSNVNYMSWYQQRPRSSPKPWIYLTSKLASGVPPRFSGSGSGTSYSLTISSMEAEDVATYYCQQWSSDPQTFGGGTKVEIK
# B7: recombinantly expressed 4F11 IgG1 (antibody, V domains shown)
# VH: DVKLVESGGDLVKPGGSLKLSCAASGFTFSAYSMSWVRQTPERRLEWVATINTGGSFTYYPDSVKGRFTISRDNAKNTLYLQMSSLKSEDTAMYFCTRVSDYGNSAYFPYWGQGTLVIVFA
# VL: QVVLTQSPALISASPGEKVTMTCSASSNVNYMSWYQQRPRSSPKPWIYLTSKLASGVPPRFSGSGSGTSYSLTISSMEAEDVATYYCQQWSSDPQTFGGGTKVEIK
# B8: monoclonal antibody 4B2 (hybridoma-produced, murine IgG2a) (antibody, V domains shown)
# VH: QIQLVQSGPELKKPGETVKISCKASGFTFTDYPMHWVKQAPGKSLKWMGWINTETEEPTYSDDFKGRSPLSLETSASTTYLQINNLKNEDTSTYFCVRSGYYYGSTYAWFGYWGQGTLVTVSA
# VL: DVVMTQIPLSLPVSLGDQASISCRSSQSLIHTNGDTFLHWYLQKPGQSPKLLIYKVSNRFSGVPDRFTGGGSGTDFTLKISRVEAEDLGIYFCSQSALFPYTFGGGTNLEIK
# B9: monoclonal antibody 1F2 (hybridoma-produced, murine IgG2a) (antibody, V domains shown)
# VH: QVHLQQSGPEVARPGASVKLSCKASGYTFTDYYLNWVKQRPRQGLEWIGQIHPGSTNTYYNEKFKGKATLTADKSSSTAYMQLSSLTFEDSAVYFCAISLGDGYYVYAMVCWGQGTAVTVSS
# VL: DIVMTQSQKFMSTSVGDRVSVTCKASQNVVTNVVWYQQKPGQSPKPLIYSASYRYSGVPDRFTGSGSGTDFTLTISNVQSEDLAEYCCQQYHSYPFTFGSGTKLEVK
# B10: recombinantly expressed 1F2 IgM (antibody, V domains shown)
# VH: QVHLQQSGPEVARPGASVKLSCKASGYTFTDYYLNWVKQRPRQGLEWIGQIHPGSTNTYYNEKFKGKATLTADKSSSTAYMQLSSLTFEDSAVYFCAISLGDGYYVYAMVCWGQGTAVTVSS
# VL: DIVMTQSQKFMSTSVGDRVSVTCKASQNVVTNVVWYQQKPGQSPKPLIYSASYRYSGVPDRFTGSGSGTDFTLTISNVQSEDLAEYCCQQYHSYPFTFGSGTKLEVK
# B11: 1F2 Fab (Fab, V domains shown)
# VH: QVHLQQSGPEVARPGASVKLSCKASGYTFTDYYLNWVKQRPRQGLEWIGQIHPGSTNTYYNEKFKGKATLTADKSSSTAYMQLSSLTFEDSAVYFCAISLGDGYYVYAMVCWGQGTAVTVSS
# VL: DIVMTQSQKFMSTSVGDRVSVTCKASQNVVTNVVWYQQKPGQSPKPLIYSASYRYSGVPDRFTGSGSGTDFTLTISNVQSEDLAEYCCQQYHSYPFTFGSGTKLEVK
# B12: recombinantly expressed 1F2 monomeric IgA (antibody, V domains shown)
# VH: QVHLQQSGPEVARPGASVKLSCKASGYTFTDYYLNWVKQRPRQGLEWIGQIHPGSTNTYYNEKFKGKATLTADKSSSTAYMQLSSLTFEDSAVYFCAISLGDGYYVYAMVCWGQGTAVTVSS
# VL: DIVMTQSQKFMSTSVGDRVSVTCKASQNVVTNVVWYQQKPGQSPKPLIYSASYRYSGVPDRFTGSGSGTDFTLTISNVQSEDLAEYCCQQYHSYPFTFGSGTKLEVK
# B13: recombinantly expressed 1F2 IgG2b (antibody, V domains shown)
# VH: QVHLQQSGPEVARPGASVKLSCKASGYTFTDYYLNWVKQRPRQGLEWIGQIHPGSTNTYYNEKFKGKATLTADKSSSTAYMQLSSLTFEDSAVYFCAISLGDGYYVYAMVCWGQGTAVTVSS
# VL: DIVMTQSQKFMSTSVGDRVSVTCKASQNVVTNVVWYQQKPGQSPKPLIYSASYRYSGVPDRFTGSGSGTDFTLTISNVQSEDLAEYCCQQYHSYPFTFGSGTKLEVK
# B14: recombinantly expressed 1F2 IgG2a (antibody, V domains shown)
# VH: QVHLQQSGPEVARPGASVKLSCKASGYTFTDYYLNWVKQRPRQGLEWIGQIHPGSTNTYYNEKFKGKATLTADKSSSTAYMQLSSLTFEDSAVYFCAISLGDGYYVYAMVCWGQGTAVTVSS
# VL: DIVMTQSQKFMSTSVGDRVSVTCKASQNVVTNVVWYQQKPGQSPKPLIYSASYRYSGVPDRFTGSGSGTDFTLTISNVQSEDLAEYCCQQYHSYPFTFGSGTKLEVK
# B15: recombinantly expressed 1F2 IgG1 (antibody, V domains shown)
# VH: QVHLQQSGPEVARPGASVKLSCKASGYTFTDYYLNWVKQRPRQGLEWIGQIHPGSTNTYYNEKFKGKATLTADKSSSTAYMQLSSLTFEDSAVYFCAISLGDGYYVYAMVCWGQGTAVTVSS
# VL: DIVMTQSQKFMSTSVGDRVSVTCKASQNVVTNVVWYQQKPGQSPKPLIYSASYRYSGVPDRFTGSGSGTDFTLTISNVQSEDLAEYCCQQYHSYPFTFGSGTKLEVK
# B16: recombinantly expressed 1F2 polymeric IgA (antibody, V domains shown)
# VH: QVHLQQSGPEVARPGASVKLSCKASGYTFTDYYLNWVKQRPRQGLEWIGQIHPGSTNTYYNEKFKGKATLTADKSSSTAYMQLSSLTFEDSAVYFCAISLGDGYYVYAMVCWGQGTAVTVSS
# VL: DIVMTQSQKFMSTSVGDRVSVTCKASQNVVTNVVWYQQKPGQSPKPLIYSASYRYSGVPDRFTGSGSGTDFTLTISNVQSEDLAEYCCQQYHSYPFTFGSGTKLEVK
# B17: monoclonal antibody 1F4 (hybridoma-produced, murine IgG2a) (antibody, V domains shown)
# VH: QVHLQQSGSELRSPGSSVKLSCKDFDSEVFPIVYMRWIRQKPGHGFEWIGDILPSFGRTIYGEKFEDKATLDADTVSNTAYLELNSLTSEDSAIYYCARGDHGNWLAYWGQGTLVTVSA
# VL: DIVMTQSHKFMSTSVGDRVTITCKASQDVSTNVAWYQQKPGQSPKLLIYWASTRHTGVPNRFTGIISGTDYTLTISSVQAEDRALYYCQQHYSAPWTFGGGTKLEIK
# B18: monoclonal antibody 3G1 (hybridoma-produced, murine IgG2a) (antibody, V domains shown)
# VH: QVQLQQSGAELMKPGASVKISCKATGYKFTSYWIGWVKQRPGHGLEWCGEIFPGSGSINYNEKFKGKATFTADTSSNTAYLQLTSLTSEDSAVYYCARGEDYYGSSYGAMDYWGQGTSLTVSS
# VL: DVQITQSPSYLAASPGETITINCRASKSISKYVAWYQEKPGRTNKVLIYSGSILSFGNPSRFSGSGSGTDFTLTISSLEPEDFAMYYCQQHNEYPWTFGGGTKLEIK
# Legend:
# [1] = target: recombinant neuraminidase (rNA) from B/Malaysia/2506/04 (influenza B virus B/Malaysia/2506/04)
# [2] = target: recombinant neuraminidase (rNA) from B/Malaysia/2506/04 (influenza B virus B/Malaysia/2506/04); remark: listed apart in the source
# [3] = target: neuraminidase of wild type B/Malaysia/2506/04 virus (influenza B virus B/Malaysia/2506/04)
# [4] = target: neuraminidase of the ancestral B/Lee/40 strain (influenza B virus B/Lee/40, UniProt P03474 1-466); assay: ELISA on purified whole virus
# [5] = target: neuraminidase of wild type B/Malaysia/2506/04 virus (influenza B virus B/Malaysia/2506/04); remark: listed apart in the source
# [6] = target: neuraminidase of wild type B/Malaysia/2506/04 virus (influenza B virus B/Malaysia/2506/04); remark: listed apart in the source
# [7] = target: recombinant neuraminidase (rNA) from B/Florida/04/2006 (influenza B virus B/Florida/04/06)
# [8] = target: recombinant neuraminidase (rNA) from B/Florida/04/2006 (influenza B virus B/Florida/04/06); remark: listed apart in the source
# Sequence of neuraminidase of the ancestral B/Lee/40 strain (P03474 whole entry): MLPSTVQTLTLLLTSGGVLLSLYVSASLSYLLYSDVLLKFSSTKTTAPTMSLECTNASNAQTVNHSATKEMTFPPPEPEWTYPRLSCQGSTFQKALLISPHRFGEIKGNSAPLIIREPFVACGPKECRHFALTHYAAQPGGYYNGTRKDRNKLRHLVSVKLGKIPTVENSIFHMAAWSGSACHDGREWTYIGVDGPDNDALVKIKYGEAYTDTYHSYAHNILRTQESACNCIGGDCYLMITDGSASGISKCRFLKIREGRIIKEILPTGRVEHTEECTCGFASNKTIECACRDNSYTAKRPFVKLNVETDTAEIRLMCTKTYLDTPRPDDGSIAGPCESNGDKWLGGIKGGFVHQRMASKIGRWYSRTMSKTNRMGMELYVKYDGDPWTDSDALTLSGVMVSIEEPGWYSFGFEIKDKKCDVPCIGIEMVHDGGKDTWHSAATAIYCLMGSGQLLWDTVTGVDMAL
binder,measurement,setting,value
B1,EC50 (read off the curve),[1],0.06 µg/mL
same,Kd,[2],0.00298 nM
same,IC50 (read off the curve),[3],0.2 µg/mL
B2,Kd,[2],0.00242 nM
B3,EC50 (read off the curve),[1],0.05 µg/mL
same,binding result,[4],binds
same,IC50 (read off the curve),[3],0.2 µg/mL
B4,Kd,[2],0.00511 nM
B5,Kd,[2],0.00472 nM
B6,Kd,[2],0.00336 nM
B7,Kd,[2],0.00891 nM
B8,binding result,[4],binds
B9,IC50 (read off the curve),[5],0.09 µg/mL
same,IC50 (read off the curve),[6],2 µg/mL
same,binding result,[4],binds
same,EC50 (read off the curve),[7],0.03 µg/mL
B10,Kd,[2],0.65 nM
B11,IC50 (read off the curve),[6],3 µg/mL
B12,Kd,[2],0.958 nM
B13,IC50 (read off the curve),[5],0.3 µg/mL
same,Kd,[2],1.16 nM
same,EC50 (read off the curve),[7],0.03 µg/mL
B14,IC50 (read off the curve),[5],0.1 µg/mL
same,Kd,[2],0.68 nM
same,EC50 (read off the curve),[7],0.03 µg/mL
B15,Kd,[2],1.05 nM
same,EC50 (read off the curve),[7],0.05 µg/mL
B16,Kd,[2],0.28 nM
B17,IC50 (read off the curve),[6],4 µg/mL
same,EC50 (read off the curve),[8],0.05 µg/mL
same,binding result,[4],binds
B18,IC50 (read off the curve),[6],3 µg/mL
same,binding result,[4],binds
